The record followed here is US20200325220A1 (published 2020).

Targets include Strep-tactin; recombinant human GM-CSF (human, UniProt P04141 18-144); αPD-1; αSLAM.
Common to all, as to assay: ELISA
In general terms: An ELISA detects its analyte on a solid surface through an enzyme-linked reagent.

recombinant human GM-CSF, sequence (P04141 18-144): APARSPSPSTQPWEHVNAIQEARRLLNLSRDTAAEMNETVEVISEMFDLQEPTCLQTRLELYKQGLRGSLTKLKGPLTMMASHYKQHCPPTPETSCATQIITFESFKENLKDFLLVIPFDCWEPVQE

B1: C9 (antibody, V domains shown)
VH: DVQLVESGGGVVRPGVSLRLSCVASGFSFKNYDMAWVRQVPGKGLEWVCGINWNGSLRGYADSVKGRFLISRDHAKDSLYLQMSRLRAEDTALYYCARDPGYNTGRDHPYDLWGQGTMVTVSS
VL: DIQMTQSPSTLSASVGDRVTITCRASQSISSWLAWYQQKPGKAPKLLIYKASSLGSGVPSRFSGSGSGTQFTLTISSLQPDDFATYYCQQYNNYPYTFGQGTKLEIKR
The term EC50 denotes the concentration needed to bring the measured effect to its halfway point. In turn, B1 displayed an EC50 in the experiment with Strep-tactin of 0.187 µg/mL.

B2: C6b (antibody)
heavy: not shown
light: EIVLTQSPGTLSLSPGETAILSCRASQSVSSSLLAWYQQKPGQAPRLLIYGASNRATGIRGRFSGSGSGTDFTLTISRLEPEDFVLYYCQHYGSRVTFGQGTKLEIKRTVAAPSVFIFPPSDEQLKSGTASVVCLLNNFYPREAKVQWKVDNALQSGNSQESVTEQDSKDSTYSLSSTLTLSKADYEKHKVYACEVTHQGLSSPVTKSFNRGEC
B2: the figures for the EC50 with recombinant human GM-CSF, with αPD-1 and with αSLAM were 0.0324 µg/mL, approximately 1350 µg/mL and 0.0885 µg/mL, respectively.

B3: C5 (antibody)
heavy: not shown
light: EIVLTQSPGTLSLSPGETAILSCRASQSVSSSLLAWYQQKPGQAPRLLIYGASNRATGIRGRFSGSGSGTDFTLTISRLEPEDFVLYYCQHYGSRVTFGQGTKLEIKRTVAAPSVFIFPPSDEQLKSGTASVVCLLNNFYPREAKVQWKVDNALQSGNSQESVTEQDSKDSTYSLSSTLTLSKADYEKHKVYACEVTHQGLSSPVTKSFNRGEC
In the case of B3, the results for the EC50 with recombinant human GM-CSF, with αPD-1 and with αSLAM were 0.0515 µg/mL, 0.0585 µg/mL and approximately 632 µg/mL, respectively.

B4: C5b (antibody)
heavy: not shown
light: EIVLTQSPGTLSLSPGETAILSCRASQSVSSSLLAWYQQKPGQAPRLLIYGASNRATGIRGRFSGSGSGTDFTLTISRLEPEDFVLYYCQHYGSRVTFGQGTKLEIKRTVAAPSVFIFPPSDEQLKSGTASVVCLLNNFYPREAKVQWKVDNALQSGNSQESVTEQDSKDSTYSLSSTLTLSKADYEKHKVYACEVTHQGLSSPVTKSFNRGEC
Consider B4, for which the results for the EC50 with recombinant human GM-CSF, in the experiment with αPD-1 and with αSLAM were 0.0355 µg/mL, 0.0371 µg/mL and approximately 397 µg/mL, respectively.

B5: GCE536 (antibody)
heavy: not shown
light: EIVLTQSPGTLSLSPGETAILSCRASQSVSSSLLAWYQQKPGQAPRLLIYGASNRATGIRGRFSGSGSGTDFTLTISRLEPEDFVLYYCQHYGSRVTFGQGTKLEIKRTVAAPSVFIFPPSDEQLKSGTASVVCLLNNFYPREAKVQWKVDNALQSGNSQESVTEQDSKDSTYSLSSTLTLSKADYEKHKVYACEVTHQGLSSPVTKSFNRGEC
As to B5, in the experiment with recombinant human GM-CSF, the EC50 worked out at 0.0492 µg/mL.

B6: C6 (antibody)
heavy: not shown
light: EIVLTQSPGTLSLSPGETAILSCRASQSVSSSLLAWYQQKPGQAPRLLIYGASNRATGIRGRFSGSGSGTDFTLTISRLEPEDFVLYYCQHYGSRVTFGQGTKLEIKRTVAAPSVFIFPPSDEQLKSGTASVVCLLNNFYPREAKVQWKVDNALQSGNSQESVTEQDSKDSTYSLSSTLTLSKADYEKHKVYACEVTHQGLSSPVTKSFNRGEC
For the molecule B6, the EC50 was approximately 743 µg/mL with αPD-1 and 0.0958 µg/mL with αSLAM.
